Reference: patent publication US20200247856A1

How the values were obtained:
[1] = target: Activin A (R&D Systems, Catalog number 338-AC-050 CF) (UniProt P08476); test: cell-based or functional assay
[2] = target: T1, Myostatin (R&D Systems, Catalogue number 788-G8-010/CF) (UniProt O14793); test: cell-based or functional assay
T1 sequence (looked up): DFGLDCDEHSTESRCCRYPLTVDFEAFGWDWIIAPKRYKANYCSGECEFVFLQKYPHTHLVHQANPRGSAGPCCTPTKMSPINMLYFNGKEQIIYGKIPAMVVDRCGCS

FcRn receptor = test: FcRn binding, 'standard methods'
[3] = target: T1, Myostatin (R&D Systems, Catalogue number 788-G8-010/CF); test: BIAcore SPR; fusion captured on anti-human Fc; myostatin as analyte (5-0.31 nM)
[4] = target: Fc Gamma Receptor RIA (R&D Systems, Catalog #1257-FC-050) (UniProt P12314); test: SPR; fusion immobilised on CM5 chip; Fc gamma receptor IA as analyte (62.5-0.49 nM)
Fc Gamma Receptor RIA (R&D Systems, Catalog #1257-FC-050), sequence (P12314 16-288 limits assumed): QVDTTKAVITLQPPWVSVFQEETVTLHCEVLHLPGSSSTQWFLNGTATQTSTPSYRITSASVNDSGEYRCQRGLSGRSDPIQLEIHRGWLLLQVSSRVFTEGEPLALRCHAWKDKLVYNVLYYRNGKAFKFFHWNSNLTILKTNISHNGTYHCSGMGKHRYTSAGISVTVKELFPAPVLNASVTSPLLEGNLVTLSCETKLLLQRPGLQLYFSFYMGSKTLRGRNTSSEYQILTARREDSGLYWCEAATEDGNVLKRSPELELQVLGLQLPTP

[5] = target: Activin A (R&D Systems, Catalog number 338-AC-050 CF) (UniProt P08476); test: BIAcore SPR; fusion captured on anti-human Fc; activin A as analyte (2.5-0.15 nM); lower end of the printed range 1-2 pM; fusion captured on anti-human Fc, activin A tested 2.5-0.15 nM
[6] = target: Activin A (R&D Systems, Catalog number 338-AC-050 CF) (UniProt P08476); test: BIAcore SPR; fusion captured on anti-human Fc; activin A as analyte (2.5-0.15 nM); upper end of the printed range 1-2 pM; fusion captured on anti-human Fc, activin A tested 2.5-0.15 nM

Activin A (R&D Systems, Catalog number 338-AC-050 CF), sequence (P08476 311-426): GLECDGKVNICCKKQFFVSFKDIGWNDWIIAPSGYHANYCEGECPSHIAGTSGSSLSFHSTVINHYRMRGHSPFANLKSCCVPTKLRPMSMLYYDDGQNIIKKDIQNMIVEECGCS
monoFS315K(76,81,82)E-hFcLALA (Fc fusion), sequence (chain): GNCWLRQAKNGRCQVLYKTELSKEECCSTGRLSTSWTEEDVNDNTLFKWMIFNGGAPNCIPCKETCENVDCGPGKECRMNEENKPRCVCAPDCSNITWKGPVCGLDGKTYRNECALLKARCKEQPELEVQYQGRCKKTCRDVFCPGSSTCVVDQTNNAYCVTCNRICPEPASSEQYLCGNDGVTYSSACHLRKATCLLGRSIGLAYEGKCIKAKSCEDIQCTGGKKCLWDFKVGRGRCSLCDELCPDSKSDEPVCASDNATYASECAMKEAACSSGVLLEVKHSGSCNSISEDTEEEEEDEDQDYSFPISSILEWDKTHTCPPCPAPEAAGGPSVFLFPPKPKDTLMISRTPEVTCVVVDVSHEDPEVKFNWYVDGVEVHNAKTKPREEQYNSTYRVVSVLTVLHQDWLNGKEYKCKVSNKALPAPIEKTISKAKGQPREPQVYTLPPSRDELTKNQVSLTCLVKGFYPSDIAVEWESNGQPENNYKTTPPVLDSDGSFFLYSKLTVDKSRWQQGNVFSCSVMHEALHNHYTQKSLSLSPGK

| Substance | Activin A IC50 (nM), luciferase gene reporter assay (Smad3, A204 cells) [1] [nM] | Myostatin IC50 (nM), luciferase gene reporter assay (Smad3, A204 cells) [2] [nM] | Kd (FcRn receptor) [nM] | Kd [3] [nM] | Kd [4] [nM] | Kd [5] [nM] | Kd [6] [nM] |
| --- | --- | --- | --- | --- | --- | --- | --- |
| FS315K(81,82,84)E-hFcLALA (Fc fusion) | 1 | 0.4 | – | – | – | – | – |
| FS315ΔHBS-hFcLALA (Fc fusion) | – | 0.4 | – | – | – | – | – |
| FS315WT-hFc (from UniProt P19883 30-344) (Fc fusion) | 0.7 | 0.4 | 114 | 0.006 to 0.01 | 0.14 | 0.001 to 0.002 | 0.001 to 0.002 |

Further lines, results first:

| Activin A IC50 (nM), luciferase gene reporter assay (Smad3, A204 cells) [1] [nM] | Myostatin IC50 (nM), luciferase gene reporter assay (Smad3, A204 cells) [2] [nM] | Kd (FcRn receptor) [nM] | Kd [3] [nM] | Kd [4] [nM] | Kd [5] [nM] | Kd [6] [nM] | Substance |
| --- | --- | --- | --- | --- | --- | --- | --- |
| – | – | 12.8 | 0.00289 | – | – | – | monoFS315wt-hFcLALA (Fc fusion) |
| – | – | 40.6 | < 0.004 | – | – | – | monoFS315K(76,81,82)E-hFcLALA (Fc fusion) |
